This data set can be described thus: protein stability index of a GFP-peptide fusion (yeast GPS) (PSI 1-4); higher = more stable; sorted into four equal gates, so the index is relative within each strain. Summed up:
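Plasmids in a pooled yeast library fused tiled 17-residue yeast protein peptides downstream of GFP and also expressed Cherry. Mid-log cultures grown without leucine were sorted into four equal gates by GFP/Cherry fluorescence ratio. Each gate's plasmids were PCR-amplified and Illumina-sequenced, and reads were matched to strains by barcodes. The protein stability index is derived by multiplying each gate's read frequency by its gate number and summing the results.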

± gives the uncertainty stated by the source.

LIDFEYVNDVAIYNNPT [RRI2]: the protein stability index was 2.73 ± 0.062 (doa10∆), 2.92 ± 0.038 (pdr5∆), 2.67 ± 0.057 (san1∆) and 2.95 ± 0.049 (ubr1∆).

For the sequence SANTNNTCTISTSKFES [SWP82], the protein stability index was 2.59 ± 0.055 (doa10∆), 2.51 ± 0.07 (pdr5∆), 2.43 ± 0.055 (san1∆) and 2.13 ± 0.04 (ubr1∆).

Consider IDYKLRVLTQDGRVYIG [SMB1], for which the protein stability index by setting is: (doa10∆) 2.49 ± 0.09; (pdr5∆) 2.71 ± 0.076; (san1∆) 1.67 ± 0.11; (ubr1∆) 2.5 ± 0.048.

For SNVYLSLVNSYIIDSPQ [COB], the protein stability index is, setting by setting: (doa10∆) 1.76 ± 0.047; (pdr5∆) 1.81 ± 0.056; (san1∆) 2.24 ± 0.071; (ubr1∆) 1.71 ± 0.052.

Regarding QDGGVTPYSNESGLVNA [RPO21], the protein stability index by setting is: (doa10∆) 2.68 ± 0.055; (pdr5∆) 2.69 ± 0.065; (san1∆) 2.63 ± 0.058; (ubr1∆) 2.6 ± 0.068.

Turning to LDEMELHPYNSRGLFEK [YDL116W/NUP84], the protein stability index by setting is: (doa10∆) 3.23 ± 0.094; (pdr5∆) 3.04 ± 0.1; (san1∆) 2.86 ± 0.076; (ubr1∆) 3.22 ± 0.063.

With HDKNIQKLLKQLDSDAN [ISW2], the protein stability index reads like this: (doa10∆) 2.58 ± 0.049; (pdr5∆) 2.52 ± 0.049; (san1∆) 2.69 ± 0.053; (ubr1∆) 2.93 ± 0.032.

ASHNVRRIPKRMRNRAL [POP1] came in with a protein stability index (doa10∆) of 2.11 ± 0.16, a protein stability index (pdr5∆) of 2.34 ± 0.058 and a protein stability index (ubr1∆) of 2.07 ± 0.25.

As to RVNEMVQGMNDDIFIRY [ECM29], the protein stability index reads like this: (doa10∆) 1.7 ± 0.095; (pdr5∆) 1.89 ± 0.17; (san1∆) 2.09 ± 0.19; (ubr1∆) 2.39 ± 0.11.

Consider NKAQAKMDKRAKTSDSA [RPL8B], for which the protein stability index is 3.34 ± 0.23 (doa10∆), 3.02 ± 0.12 (pdr5∆), 3.27 ± 0.066 (san1∆) and 3.31 ± 0.071 (ubr1∆).

Sequence VPSYIHVEKERASTELS [YIL149C/MLP2] yielded a protein stability index (doa10∆) of 2.33 ± 0.1, a protein stability index (pdr5∆) of 2.46 ± 0.069, a protein stability index (san1∆) of 2.76 ± 0.084 and a protein stability index (ubr1∆) of 2.77 ± 0.054.

In turn, SNFADSADYEILYEIRA [YDL116W/NUP84] showed a protein stability index (doa10∆) of 1.83 ± 0.081, a protein stability index (pdr5∆) of 1.61 ± 0.097, a protein stability index (san1∆) of 2.42 ± 0.19 and a protein stability index (ubr1∆) of 1.71 ± 0.099.

For GNPVNDANLLGAEVLIK [COR1], the protein stability index is, setting by setting: (doa10∆) 2.56 ± 0.086; (pdr5∆) 3.02 ± 0.093; (san1∆) 2.63 ± 0.075; (ubr1∆) 2.89 ± 0.035.

As to EKKNDENSTSNSKPEKS [YLR335W/NUP2], the protein stability index (doa10∆) turned out to be 3.24 ± 0.086, the protein stability index (pdr5∆) was 3.21 ± 0.1, the protein stability index (san1∆) is 3.28 ± 0.054 and the protein stability index (ubr1∆) amounted to 3.3 ± 0.056.

As to DGKGAVYSFDPVGSYER [PRE7], the protein stability index runs as follows: (doa10∆) 3.31 ± 0.18; (pdr5∆) 2.57 ± 0.12; (san1∆) 2.94 ± 0.15; (ubr1∆) 3.27 ± 0.081.

Regarding LERYYKEQADIYAKQQE [ARP7], the protein stability index reads like this: (doa10∆) 3.29 ± 0.29; (ubr1∆) 3.42 ± 0.14.

KTQLGSTMTEPVKQSFI [GAL11]: the protein stability index by setting is: (doa10∆) 2.81 ± 0.051; (pdr5∆) 2.9 ± 0.06; (san1∆) 2.56 ± 0.053; (ubr1∆) 2.85 ± 0.037.

In turn, LADILKANISLETLEHN [RPO21] yielded a protein stability index (doa10∆) of 2.96 ± 0.093, a protein stability index (pdr5∆) of 2.91 ± 0.1, a protein stability index (san1∆) of 3.11 ± 0.11 and a protein stability index (ubr1∆) of 2.61 ± 0.11.

For the sequence DMAILERYYELAFDKLN [ARP7], the protein stability index runs as follows: (doa10∆) 1.3 ± 0.09; (pdr5∆) 1.6 ± 0.1; (san1∆) 1.31 ± 0.16; (ubr1∆) 1.54 ± 0.18.

In the case of NVNMTVNTMGTGGQTID [MED6], the protein stability index (doa10∆) amounted to 3.23 ± 0.3, the protein stability index (pdr5∆) was 3.44 ± 0.12, the protein stability index (san1∆) was 3.06 ± 0.14 and the protein stability index (ubr1∆) came out at 3.37 ± 0.29.

On to YSTIRQLVYKRGFGKIN [RPL7A], for which the protein stability index by setting is: (doa10∆) 2.34 ± 0.064; (pdr5∆) 1.97 ± 0.047; (san1∆) 2.24 ± 0.11; (ubr1∆) 1.98 ± 0.049.

As to FAKFIHHIHHFEKKELQ [IRR1], the protein stability index (doa10∆) amounted to 1.72 ± 0.048, the protein stability index (pdr5∆) stood at 2.74 ± 0.064, the protein stability index (san1∆) came out at 2.18 ± 0.12 and the protein stability index (ubr1∆) was 2.13 ± 0.056.

On to ELTKTKSSLYSAQDLLD [YIL149C/MLP2], for which the protein stability index was 2.67 ± 0.05 (doa10∆), 2.84 ± 0.05 (pdr5∆), 2.6 ± 0.07 (san1∆) and 2.83 ± 0.029 (ubr1∆).

Sequence KLRGDLREAPADYWTHA [SNF6] registered a protein stability index (pdr5∆) of 3 ± 0.27 and a protein stability index (ubr1∆) of 2.99 ± 0.12.

As for MHDSNLQNNSDSESDSD [SKP1], the protein stability index is, setting by setting: (doa10∆) 2.94 ± 0.11; (pdr5∆) 3.18 ± 0.078; (san1∆) 3.06 ± 0.056; (ubr1∆) 3.02 ± 0.068.

As to ISSGLLYLQDSNDKFVH [SRB8], the protein stability index was found to be 1.94 ± 0.087 (doa10∆), 1.48 ± 0.13 (pdr5∆), 1.25 ± 0.15 (san1∆) and 1.14 ± 0.07 (ubr1∆).

The values above are taken from the supplement of paper PMC9732359.
